Consider four substances from US20260116963A1.

As usually defined, the Kd is the equilibrium constant for the complex coming apart. Low readings indicate higher affinity, high ones lower affinity.

Assay [1] addresses HIS-tagged human IL-13 (human) (UniProt P35225). Put plainly: BLI in-tandem epitope binning (Octet RH96): HIS-tagged human IL-13 on anti-penta-HIS biosensors, saturated with 200 nM tralokinumab-hIgG1-YTE, then 200 nM isotype-hIgG1-YTE as competing antibody; shaded cell (non-binding, <=0.1 nm).
The target is the same in assay [2]. The experiment in a line: BLI in-tandem epitope binning (Octet RH96): HIS-tagged human IL-13 on anti-penta-HIS biosensors, saturated with 200 nM Ref1, then 200 nM isotype-hIgG1-YTE as competing antibody; shaded cell (non-binding, <=0.1 nm). On the technique in general: In BLI a coated tip is dipped into the sample, and binding shifts an interference pattern.
Assay [3] shares this target. The experiment in a line: BLI in-tandem epitope binning (Octet RH96): HIS-tagged human IL-13 on anti-penta-HIS biosensors, first exposed to 200 nM isotype-hIgG1-YTE as saturating antibody, then 200 nM isotype-hIgG1-YTE as competing antibody; shaded cell (non-binding, <=0.1 nm).
Assay [4] shares this target. Put plainly: BLI in-tandem epitope binning (Octet RH96): HIS-tagged human IL-13 on anti-penta-HIS biosensors, saturated with 200 nM AbG, then 200 nM isotype-hIgG1-YTE as competing antibody; shaded cell (non-binding, <=0.1 nm).
Assay [5] has as its target HIS-tagged human FcRn (human) (UniProt P55899). Put plainly: SPR (Biacore 8K+), antibody captured on anti-human Fab CM4 chip, HIS-tagged human FcRn 9.8-5000 nM as analyte, pH 6.0, 25 C, steady-state fit. Background: Surface plasmon resonance follows binding to a sensor surface in real time, without labels.

Chain of HIS-tagged human FcRn (human) (P55899 24-297 limits assumed, chain 1 of 2): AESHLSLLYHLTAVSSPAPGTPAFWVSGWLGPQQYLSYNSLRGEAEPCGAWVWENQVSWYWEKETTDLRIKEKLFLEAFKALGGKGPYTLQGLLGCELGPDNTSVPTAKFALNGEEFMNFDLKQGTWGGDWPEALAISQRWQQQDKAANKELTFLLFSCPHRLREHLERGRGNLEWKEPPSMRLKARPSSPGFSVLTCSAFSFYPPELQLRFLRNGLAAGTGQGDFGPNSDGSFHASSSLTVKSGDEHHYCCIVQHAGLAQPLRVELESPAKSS
Chain of HIS-tagged human FcRn (human) (chain, as listed by the source limits assumed, chain 2 of 2): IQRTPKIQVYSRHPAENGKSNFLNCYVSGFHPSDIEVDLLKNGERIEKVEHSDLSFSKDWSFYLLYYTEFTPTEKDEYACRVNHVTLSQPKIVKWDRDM
Chain of HIS-tagged human IL-13 (human) (P35225 other isoform, or with tags, fused parts or gaps limits assumed): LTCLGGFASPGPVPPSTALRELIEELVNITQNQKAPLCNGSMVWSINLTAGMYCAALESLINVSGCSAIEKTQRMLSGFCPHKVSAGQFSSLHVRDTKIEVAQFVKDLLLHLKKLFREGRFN

In the case of isotype-hIgG1-YTE (antibody), the BLI response of the competing antibody was -0.023 nm in assay [1], -0.036 nm in assay [2], 0 nm in assay [3] and -0.018 nm in assay [4]. Also, the Kd in assay [5] worked out at 155 nM.
As to isotype-hIgG4 (antibody), the Kd in assay [5] was 1190 nM. In other words, the single-digit micromolar range.
Consider isotype-hIgG1 (antibody), for which the Kd in assay [5] was found to be 1160 nM.
The same measure, in the same setting: then isotype-hIgG1-YTE-TM (antibody), with 156 nM.
